Assay results from PMC11988184.

B1: c-Myc tagged MIRO1 (mitochondrial rho GTPase 1), wild type [not stated] / MCU (mitochondrial Ca2+ uniporter), endogenous in HEK cells [human (endogenous in HEK)] (parent)
chain 1: MKKDVRILLVGEPRVGKTSLIMSLVSEEFPEEVPPRAEEITIPADVTPERVPTHIVDYSEAEQSDEQLHQEISQANVICIVYAVNNKHSIDKVTSRWIPLINERTDKDSRLPLILVGNKSDLVEYSSMETILPIMNQYTEIETCVECSAKNLKNISELFYYAQKAVLHPTGPLYCPEEKEMKPACIKALTRIFKISDQDNDGTLNDAELNFFQRICFNTPLAPQALEDVKNVVRKHISDGVADSGLTLKGFLFLHTLFIQRGRHETTWTVLRRFGYDDDLDLTPEYLFPLLKIPPDCTTELNHHAYLFLQSTFDKHDLDRDCALSPDELKDLFKVFPYIPWGPDVNNTVCTNERGWITYQGFLSQWTLTTYLDVQRCLEYLGYLGYSILTEQESQASAVTVTRDKKIDLQKKQTQRNVFRCNVIGVKNCGKSGVLQALLGRNLMRQKKIREDHKSYYAINTVYVYGQEKYLLLHDISESEFLTEAEIICDVVCLVYDVSNPKSFEYCARIFKQHFMDSRIPCLIVAAKSDLHEVKQEYSISPTDFCRKHKMPPPQAFTCNTADAPSKDIFVKLTTMAMYPHVTQADLKSSTFWLRASFGATVFAVLGFAMYKALLKQR
chain 2: VHQRIASWQNLGAVYCSTVVPSDDVTVVYQNGLPVISVRLPSRRERCQFTLKPISDSVGVFLRQLQEEDRGIDRVAIYSPDGVRVAASTGIDLLLLDDFKLVINDLTYHVRPPKRDLLSHENAATLNDVKTLVQQLYTTLCIEQHQLNKERELIERLEDLKEQLAPLEKVRIEISRKAEKRTTLVLWGGLAYMATQFGILARLTWWEYSWDIMEPVTYFITYGSAMAMYAYFVMTRQEYVYPEARDRQYLLFFHKGAKKSRFDLEKYNQLKDAIAQAEMDLKRLRDPLQVHLPLRQIGEKD

Variants of: B1
Test: co-immunoprecipitation (anti-Myc IP, immunoblot quantification)
Conditions: with MCU (mitochondrial Ca2+ uniporter), c-Myc-tagged MIRO1 constructs expressed in HEK cells for 24 h, n = 6 independent experiments, parent: 0.26, read off a plot

Row | response | Variant
1 | 0.065 AU | chain 1 E208K E328K
2 | 0.36 AU | chain 1 S432N
